Legend:
[1] = target: YU2_(gp140) (foldon trimer) (HIV-1 (strain YU2))
[2] = target: BG505_(SOSIP.664) Env trimer (HIV-1 BG505 (clade A), SOSIP.664 with …, stabilised)

Row | Binder | binding result [1] | binding result [2]
1 | 561_09_23 (antibody, V domains shown) VH: QAHLFQSGAELKRPGASVRISCRADDDPYTDDDTFTKYYTHWIRQAPGQRPEWLGVISPHFARPIYSYKFQDRLTLTRDSSLTAVYLELRSLRLDDTGIYYCARDPFGERAPHYNYHMDVWGAGTTVIVSS VL: EVVLTQSPAILSASPGDRVVLSCRASEGLDSSQLAWYRFKDGQIPRLVLFGVSNRARGTPDRFSGGGSGADFTLTISRVEREDFATYYCQRFGATPITFGGGTRLDMN | binds | binds
2 | 561_09_71 (antibody, V domains shown) VH: QLAQSGGGVKKPGASVKISCVTPESTFTKYWLHWVRQAPGQGFEWLGVVSPHGGRPMFANKFRDRLTLTRDIHTTTHYMELRGLTSDDTAIYYCARDSFGETFRHSGDQPYQMDVWGGGTNIVVSS VL: EPVLTQSPGTLSLSPGERATLSCRASQGFSVDHLAWFQKRPGRPPRLLIFETSRRANGSPDRFSGSASGAEYTLTISNVEPEDFAVYYCQSYGSITPLIFGGGTRVDVK | binds | binds
3 | 561_03_59 (antibody, V domains shown) VH: QRRLFQSGTEVKRPGASVRISCRADDDPYTDDDTFTKYWTHWIRQAPGQRPEWLGVISPHFARPIYSYKFQDRLTLTRDSSLTGVYLELKGLQLDDSGIYFCARDPFGDRAPHYNYHMDVWGGGTAVIVSS VL: EVVLTQSPAILSVSPGDRVSFSCRASEGLDTSQLAWYRFKRGQIPTLVIFATSNRARGTPDRFSGSGSGADFTLTINRVEPEDFATYYCQRYGATPITFGGGTTLDKK | binds | binds
4 | 561_01_21 (antibody, V domains shown) VH: QRRLFQSGTEVKRPGASVKISCRADDDPYTDDDTFTKYYTHWIRQAPGQRPEWLGVISPHFARPIYSYKFQDRLTLTRDSSLTAVYFELRGLQPDDTGIYFCARDPFGDMYPHYNYHMDVWGGGTTVIVSA VL: EVVLTQSPAILSVSPGDRVILSCKASEGLSSSDLAWYRFKGGQIPTLVIFGTSTRARGTPDRFSGSGSGTDFTLTISRVEPEDFATYYCQRYGGTPITFGGGTTLDKK | binds | binds
5 | 561_02_27 (antibody, V domains shown) VH: QGRLFQSGTEVKRPGASVKISCRADDDPYTDDDTFTKYYTHWIRQAPGQRPEWLGVISPHYARPIYSYKFRDRLTLTRDSSLTAVYFELRGLQPDDTGIYFCARDPFGDMYPHYNYHMDVWGGGTTVIVSA VL: EVVLTQSPAILSVSPGDRVILSCKASEGLSSSDLAWYRFKGGQIPTLVIFGASNRARGTPDRFSGSGSGTDFTLTINRVEPEDFATYYCQRYGGTPITFGGGTTLDKK | binds | binds
6 | 561_01_54 (antibody, V domains shown) VH: QGRLFQSGTEVKRPGASVKISCRADDDPYTDDDTFTKYYTHWIRQAPGQRPEWLGVISPHFARPIYSYKFQDRLTLTRDSSLTAVYFELRDLQSDDTGIYFCARDPFGDMYPHYNSHMDVWGGGTTVIVSA VL: EVVLTQSPAILSVSPGDRVILSCKASEGLSSSDLAWYRFKSGQIPTLVIFGASNRARGTPDRFSGSGSGTDFTLTINRVEPEDFATYYCQRYGGTPITFGGGTTLDKK | binds | binds
7 | 561_01_33 (antibody, V domains shown) VH: QGRLFQSGTEVKRPGASVKISCRADDDPYTDDDTFTKYYTHWIRQAPGQRPEWLGVISPHFARPIYSYKFRDRLTLTRDSSLTAVYFELRGLQPDDTGIYFCARDPFGDMYPHYNYHMDVWGGGTTVIVSA VL: EVVLTQSPAILSVSPGDRVILSCKASEGLSSSDLAWYRFKGGQIPTLVIFGTSNRARGTPDRFSGSGSGTDFTLTINRVQPEDFATYYCQRYGGTPITFGGGTTLDKK | binds | binds
8 | 561_02_47 (antibody, V domains shown) V domain 1: QRRLFQSGTEVKRPGASVKISCRADDDPYTDDDTFTKYYTHWIRQAPGQRPEWLGVISPHYARPIYSYKFQDRLTLTRDSSLTAVYFELRGLQPDDTGIYFCARDPFGDMYPHYNYHMDVWGGGTTLIVSA V domain 2: EVVLTQSPAILSVSPGDRVILSCKASEGLSSSDLAWYRFKSGQIPTLVIFGASNRARGTPDRFAGSGSGTDFTLTINRVEPEDFATYYCQRYGGTPITFGGGTTLDKK | binds | binds
9 | 561_02_22 (antibody, V domains shown) VH: QGRLFQSGAEVKRPGASVKISCRADDDPYTDDDTFTKYYTHWIRQAPGQRPEWLGVISPHFARPIYSYKFRDRLTLTRDSSLTAVYFELRGLQPDDTGIYFCARDPFGDMYPHYNYHMDVWGGGTTVIVSA VL: EVVLTQSPAILSVSPGDRVILSCKASEGLSSSDLAWYRFKGGQIPTLVIFATSNRARGTPDRFSGSGSGTDFTLTISKVQPEDFATYYCQRYGGTPITFGGGTTLDKK | binds | binds
10 | 561_10_07 (antibody, V domains shown) VH: QGRFFQSGAEVKRPGASVRISCRADDDPYTDDDTFTKYWTHWIRQAPGQRPEWLGVISPHFARPIYSYKFRDRLTLTRDSSLTAVYLELQGLQPDDSGIYYCARDPFGDRAPHYNYHMDVWGGGTAVIVSS VL: EVVLTQSPAILSVSPGDRVILSCRASEGLDPTHLAWYRFKRGQIPTLVIFGTSNRARGTPDRFSGSGSEADFTLTITRVEPEDFATYYCQRYGGTPITFGGGTTLDKK | binds | binds
11 | 561_02_10 (antibody, V domains shown) VH: QGRLFQSGTEVKRPGASVKISCRADDDPYTDDDTFTKYHTHWIRQAPGQRPEWLGVISPHYARPIYSYKFQDRLTLTRDSSLTAVYFELRGLQPDDTGIYFCARDPFGNMYPHYNYHMDVWGGGTTVIVSA VL: EVVLTQSPAILSVSPGDRVILSCKASEGLSSSDLAWYRFKRGQIPTLVIFGASTRARGTPDRFSGSGSGTDFTLTINRVEPEDFATYYCQRYGGTPITFGGGTTLDKK | binds | binds
12 | 561_01_23 (antibody, V domains shown) VH: QLVQSGGGVRRPGASVKISCETPEYTFTKYWLHWLRQAPGRGLEWMGVVSPHGGRPMFAFEFRDRLTLTRDIHTTTHYMELRGLTSDDTAVYFCARDSFGETFRGHDQPYQMDVWGGGTTVVVSS VL: EPVLTQSPGTLSLSPGEGATLSCRARQGFSADHVAWFQKKPGRPPRLLIFEASRRASGTPERFSGGGSGPEYTLTITRVEPEDFAVYYCQSYGSITPLVFGGGTRVDVK | binds | binds
13 | 561_03_78 (antibody, V domains shown) VH: QLVQSGGGVRRPGASVKISCETPEYTFTKYWLHWLRQAPGRGLEWMGVVSPHGGRPMFAFEFRDRLTLTRDIHTTTHYMELGGLTSDDTAVYYCARDPFGETFRGHDQPYQMDVWGGGTTIVVSS VL: EPVLTQSPGTLSLSPGERATLSCRARQGFSADHVAWFQKKPGRPPRLLIFEASRRASGTPERFSGSGSGPEYTLTITRVEPEDFAVYYCQSYGSITPLVFGGGTRVDVK | binds | binds
14 | 561_02_12 (antibody, V domains shown) VH: QLVQSGGGVRRPGASVKISCETPEDTFTKYWLHWLRQAPGQGLEWMGVVSPHGGRPMFAFEFRDRLTLTRDIHTTTHFMELRGLTSDDTAVYYCARDPFGETFRGHDQPYRMDVWGGGTTIVVSS VL: EPVLTQSPGTLSVSPGEGATLSCRARQGFSADHVAWFQKKPGRPPRLLIFEASRRASGTPERFSGSGSGPEYTLTITRVEAEDFAVYYCQSYGSITPLVFGGGTRVDVK | binds | binds
15 | 561_03_07 (antibody, V domains shown) VH: QLVQSGGGVRRPGASVKISCETPEDTFTKYWLHWLRQAPGQGLEWMGVVSPHGGRPMFAFEFRDRLTLTRDIHTTTHFMELGGLTSDDTAVYYCARDPFGETFRGHDQPYRMDVWGGGTTIVVSS VL: EPVLTQSPGTLSVSPGEGATLSCRARQGFSADHVAWFQKKPGRPPRLLIFEASRRASGTPERFSGSGSGPEYTLTITRVEPEDFAVYYCQSYGSITPLVFGGGTRVDVK | binds | binds
16 | 561_01_29 (antibody, V domains shown) VH: QLVQSGGGVRRPGASVKVSCETPEYTFTKYWLHWLRQAPGRGLEWMGVVSPHGGRPMFAFEFRDRLTLTRDIHTTTHYMELRGLTSDDTAVYFCARDSFGETFRGHDQPYQMDLWGGGTTVVVSS VL: EPVLTQSPGTLSLSPGEGVTLSCRARQGFSADHVAWFQKKPGRPPRLLIFETSRRASGTPERFSGGGSGPEYTLTITRVEPEDFAVYYCQSYGSITPLVFGGGTRVDVK | binds | binds
17 | 561_02_21 (antibody, V domains shown) VH: QLVQSGGGVKRPGASVKISCETPEYTFTKYWLHWLRQAPGQGLEWMGVVSPHGGRPMFAFEFRDRLTLTRDIHTTTHYMELGGLTLDDTAVYYCARDPFGETFRGREQPYQMDVWGGGTTIVVTS VL: EALLTQSPGTLSLSPGEGATLSCRARQGFSADHVAWFQKKPGRPPRLLIFEASRRASGTPERFSGSGSGPEYTLTITRVEPEDFAVYYCQSYGSITPLVFGGGTRVDVK | binds | binds
18 | 561_08_52 (antibody, V domains shown) VH: QLVQWGGGVKRPGASVRISCQCPEDTFTKYYIHWVRQAPGRGLEWLGMVSPHGGRPFHTSEFRDRLTMTRDIHETTHHMVLSGLGVADSGTYFCARDPLGEKSPAYSHHMDVWGGGATVIVSS VL: AVVLTQSPVTLSVSPGETAILSCRASHGLDTRHVTWFQQKRGQAPRLLIFATYRRASGVSDRFRATDSGSATDFNLTITAVEPADFATYFCQTYGAITPITFGGGTKVDLK | binds | binds
19 | 561_09_89 (antibody, V domains shown) VH: QLVQWGGGVKRPGASVRISCQCPEDTFTKYYIHWVRQAPGRGLEWLGMVSPHGGRPFHTSEFRDRLTMTREIHETTHHMVLSGLGVGDSGTYFCARDPLGEKSPAYSHHMDVWGGGATVIVSS VL: AVVLTQSPVTLSVSPGESAVLSCRASHGLDTRHVTWFQQKRGQAPRLLIFATSRRASGVSDRFRATDGGSATDFNLTITAVEPADFATYYCQTYGAITPITFGGGTKLDLK | binds | binds

Reference: publication PMC7042716 (Cell, 2020)
